PMC4788495 (Journal of bioenergetics and biomembranes, 2008)

B1: Rieske iron-sulfur protein subunit of the wild-type R. sphaeroides cytochrome bc1 complex (Rsbc1) (natural protein)
chain: GTRRDFLYYATAGAGAVATGAAVWPLINQMNPSADVQALASIFVDVSSVEPGVQLTVKFLGKPIFIRRRTEADIELGRSVQLGQLVDTNARNANIDAGAEATDQNRTLDEAGEWLVMWGVCTHLGCVPIGGVSGDFGGWFCPCHGSHYDSAGRIRKGPAPENLPIPLAKFIDETTIQLG
B2: cytochrome c1 subunit of the R. sphaeroides cytochrome bc1 complex (Rsbc1), his-tag at the C-terminus (natural protein, UniProt Q02760 23-285, looked up)
chain: AGGGHVEDVPFSFEGPFGTFDQHQLQRGLQVYTEVCAACHGMKFVPIRSLSEPGGPELPEDQVRAYATQFTVTDEETGEDREGKPTDHFPHSALENAADLSLMAKARAGFHGPMGTGISQLFNGIGGPEYIYSVLTGFPEEPPKCAEGHEPDGFYYNRAFQNGSVPDTCKDANGVKTTAGSWIAMPPPLMDDLVEYADGHDASVHAMAEDVSAFLMWAAEPKLMARKQAGFTAVMFLTVLSVLLYLTNKRLWAGVKGKKKTNV
B3: cytochrome b subunit of the wild-type R. sphaeroides cytochrome bc1 complex (Rsbc1) (natural protein)
chain: GIPHDHYEPRTGIEKWLHSRLPIVALAYDTIMIPTPRNLNWMWIWGVVLAFCLVLQIVTGIVLAMHYTPHVDLAFASVEHIMRNVNGGFMLRYLHANGASLFFIAVYLHIFRGLYYGSYKAPREVTWIVGMLIYLAMMATAFMGYVLPWGQMSFWGATVITGLFGAIPGIGHSIQTWLLGGPAVDNATLNRFFSLHYLLPFVIAALVAIHIWAFHSTGNNNPTGVEVRRTSKAEAQKDTVPFWPYFIIKDVFALAVVLLVFFAIVGFMPNYLGHPDNYIEANPLSTPAHIVPEWYFLPFYAILRAFTADVWVVQIANFISFGIIDAKFFGVLAMFGAILVMALVPWLDTSPVRSGRYRPMFKIYFWLLAADFVILTWVGAQQTTFPYDWISLIASAYWFAYFLVILPILGAIEKPVAPPATIEEDFNA
B4: cytochrome b S287R, subunit of the double mutant S287R(cyt b)/V135S(ISP) Rsbc1 (natural protein, R. sphaeroides, UniProt Q02761 1-445, looked up)
chain: MSGIPHDHYEPRTGIEKWLHSRLPIVALAYDTIMIPTPRNLNWMWIWGVVLAFCLVLQIVTGIVLAMHYTPHVDLAFASVEHIMRNVNGGFMLRYLHANGASLFFIAVYLHIFRGLYYGSYKAPREVTWIVGMLIYLAMMATAFMGYVLPWGQMSFWGATVITGLFGAIPGIGHSIQTWLLGGPAVDNATLNRFFSLHYLLPFVIAALVAIHIWAFHSTGNNNPTGVEVRRTSKAEAQKDTVPFWPYFIIKDVFALAVVLLVFFAIVGFMPNYLGHPDNYIEANPLRTPAHIVPEWYFLPFYAILRAFTADVWVVQIANFISFGIIDAKFFGVLAMFGAILVMALVPWLDTSPVRSGRYRPMFKIYFWLLAADFVILTWVGAQQTTFPYDWISLIASAYWFAYFLVILPILGAIEKPVAPPATIEEDFNAHYSPATGGTKTVVAE
B5: Rieske iron-sulfur protein V135S, subunit of the double mutant S287R(cyt b)/V135S(ISP) Rsbc1 (natural protein, R. sphaeroides, UniProt Q02762 1-187, looked up)
chain: MSNAEDHAGTRRDFLYYATAGAGAVATGAAVWPLINQMNPSADVQALASIFVDVSSVEPGVQLTVKFLGKPIFIRRRTEADIELGRSVQLGQLVDTNARNANIDAGAEATDQNRTLDEAGEWLVMWGVCTHLGCSPIGGVSGDFGGWFCPCHGSHYDSAGRIRKGPAPENLPIPLAKFIDETTIQLG

How the values were obtained:
[1] = biological target: B3; assay: crystal structure
[2] = biological target: B4; assay: crystal structure
[3] = biological target: B3; assay: SEC
crystal structure [4] = biological target: the molecule itself; assay: crystal structure
crystal structure [5] = biological target: the molecule itself; assay: crystal structure; remark: listed apart in the source

Binder: B1
- binding result [1]: binds

Binder: B2
- binding result [2]: binds
- binding result [3]: binds

Binder: B3
- binding result (crystal structure [4]): binds

Binder: B4
- stoichiometry N (crystal structure [5]): 2

Binder: B5
- binding result [2]: binds
